Drawing on patent publication US12383631B2, “Immune antigen specific IL-18 immunocytokines and uses thereof” (Bright Peak Therapeutics AG, priority 2022, dated 2025), this text covers Kd and IC50 for 19 molecules.

Numbering of substitutions follows the chain as printed. In names and notes the source's numbering stands. Where only a bound is given, the exact number is not on record here.

One assay concerns the target T1, human IL-18BP (Homo sapiens, UniProt O95998).
T1 sequence (O95998 31-194): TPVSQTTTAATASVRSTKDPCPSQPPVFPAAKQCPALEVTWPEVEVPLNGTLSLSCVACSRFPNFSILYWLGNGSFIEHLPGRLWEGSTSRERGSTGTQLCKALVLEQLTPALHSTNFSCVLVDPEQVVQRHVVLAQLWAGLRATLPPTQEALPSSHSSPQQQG
Nature of the assay: IL-18BP binding AlphaLISA assay (Example 4 / 17B). The conditions noted are these: IL-18 binding protein AlphaLISA. How it is done:
A human IL-18BP AlphaLISA Assay Kit is used to determine the binding affinity of each immunocytokine and IL-18 variant for IL-18BP, which detected the presence of free form IL-18BP.
Sixteen three-fold serial dilutions of IL-18 analytes are prepared in aMEM medium supplemented with 20% FCS, Glutamax, and 25 μM β-mercaptoethanol in the presence of 5 ng/mL of His-tagged human IL-18BP. Final IL-18 analytes concentration range from 2778 nM to 0.2 pM.
After 1 hr incubation at room temperature, free IL-18BP levels are measured using a […]. In a 384 well OPTIplate, 5 μL of 5× Anti-IL-18BP acceptor beads are added to 7.5 μL of an IL-18/IL-18BP mix. After 30 min incubation at room temperature with shaking, 5 μL of biotinylated Anti-IL-18BP antibodies are added to each well. The plate is incubated further for 1 hr at room temperature. Under subdued light, 12.5 μL of 2× streptavidin (SA) donor beads are pipetted into each well, and the wells are incubated with shaking for an additional 30 min at room temperature. The AlphaLisa signal is then measured on an Enspire plate reader with 680 and 615 nm as excitation and emission wavelengths, respectively. The dissociation constant (KD) is calculated based on a variable slope, four parameter analysis using GraphPad PRISM software.
17B—IL-18 BP AlphaLISA assay—An IL-18 binding protein AlphaLISA experiment substantially as described in Example 4 was performed on IL-18 polypeptide which can be incorporated into immunocytokine compositions as provided herein to assess ability to bind to IL-18BP.

The target of assay [1] is T2, human IL-18 binding protein isoform a (IL-18BPa) (Homo sapiens, UniProt O95998).
T2 sequence (O95998 31-194): T1 sequence (O95998 31-194)
The assay can be described thus: IL-18 Binding Protein inhibition cellular assay in NK-92 cells (Example 4 / 17C). The conditions noted are these: inhibition by IL-18BP of IFNγ stimulation in NK92 cells. The format is cell-based. The procedure: The NK cell line NK-92 derived from a patient with lymphoma (ATCC® CRL-2407™) is cultured in aMEM medium supplemented with 20% FCS-Glutamax, 25 μM β-mercaptoethanol, and 100 IU/mL of recombinant human IL-2.
On the day of experiment, cells are harvested and washed with aMEM medium without IL-2 and containing 1 ng/mL of recombinant human IL-12. After counting, the cells are seeded at 100,000 cells/well in a 384 well titer plate and incubated at 37° C./5% CO2. Sixteen 2-fold serial dilutions of Fc-fused human IL-18 binding protein isoform a (IL-18BPa) are prepared in aMEM medium. 1 ng/mL of IL-12 containing 2 nM of each modified IL-18 polypeptide variant is added to the NK-92 cells. The final IL-18 analyte concentration is 1 nM, and the final IL-18BPa concentration ranged from 566 nM to 17 pM.
After incubating the cells for 16-20 hr at 37° C./5% CO2, 5 μL of the supernatant is carefully transferred to a 384 microwell OptiPlate. IFNγ levels are measured using a human IFNγ AlphaLISA Assay Kit. Briefly, 10 μL of 2.5× AlphaLISA anti-IFNγ acceptor beads and biotinylated antibody anti-IFNγ mix are added to 5 μL of NK-92 supernatants. The mixtures are incubated for 1 hr at room temperature with shaking. Under subdued light, 2.5 μL of 2×SA donor beads are pipetted in each well and incubated for 30 min at room temperature with shaking. AlphaLISA signals are then measured on an EnSpire™ plate reader using 680 nm and 615 nm as excitation and emission wavelengths, respectively. Half maximal inhibitory concentrations (IC50) are calculated based on a variable slope and four parameter analysis using GraphPad PRISM software.
17C—IFNγ Stimulation and IL-18BP Inhibition Assay—The experiments described in Example 4 for determination of IFNg stimulation in NK92 cells (and inhibition by IL-18 BP) were performed substantially as described on modified IL-18 polypeptides in order to assess their activities and their suitability for incorporation into immunocytokine compositions.

B1: SEQ ID NO: 72: IL-18 polypeptide: N-terminal 4xG, E6K, V11I, C38A, K53A, T63A, C76A, C127A (protein)
chain: GGGGYFGKLKSKLSIIRNLNDQVLFIDQGNRPLFEDMTDSDARDNAPRTIFIISMYADSQPRGMAVAISVKCEKISTLSAENKIISFKEMNPPDNIKDTKSDIIFFQRSVPGHDNKMQFESSSYEGYFLAAEKERDLFKLILKKEDELGDRSIMFTVQNED
modifications: N-terminal 4xG
notes: IL-18 polypeptide: N-terminal 4xG, E6K, V11I, C38A, K53A, T63A, C76A, C127A
In the case of B1, in the assay with human IL-18BP, the Kd is > 2800 nM.

B2: C177: IL-18 polypeptide: E6K, V11I, C38A, I49R, K53A, T63A, C76A, C127A (protein)
chain: YFGKLKSKLSIIRNLNDQVLFIDQGNRPLFEDMTDSDARDNAPRTIFIRSMYADSQPRGMAVAISVKCEKISTLSAENKIISFKEMNPPDNIKDTKSDIIFFQRSVPGHDNKMQFESSSYEGYFLAAEKERDLFKLILKKEDELGDRSIMFTVQNED
In the case of B2, in the assay with human IL-18BP, the Kd is > 2800 nM.

B3: C160: IL-18 polypeptide: V11I, C38A, K53A, C76A, D110A, C127A (protein)
chain: B2 chain with K6E, R49I, A63T, D110A
Molecule B3 displayed an IC50 in assay [1] of 3.18 nM.

B4: C166: IL-18 polypeptide: V11I, C38A, S55T, C76A, C127A (protein)
chain: B2 chain with K6E, R49I, A53K, S55T, A63T
In assay [1], B4 displayed an IC50 of 0.44 nM.

B5: SEQ ID NO: 69: IL-18 polypeptide: E6K, V11I, C38A, M51G, K53A, T63A, C76A, C127A (protein)
chain: B2 chain with R49I, M51G
B5: in the assay with human IL-18BP, the Kd is > 2800 nM.

B6: C181: IL-18 polypeptide: E6K, V11I, C38A, K53A, T63A, C76A, C127A, V153E (protein)
chain: B2 chain with R49I, V153E
Regarding B6, the Kd with human IL-18BP was > 2800 nM.

B7: C178: IL-18 polypeptide: E6K, V11I, C38A, K53A, T63A, C76A, Q103R, C127A (protein)
chain: B2 chain with R49I, Q103R
Consider B7, for which the Kd with human IL-18BP is > 2800 nM.

B8: C164: IL-18 polypeptide: V11I, C38A, S55H, C76A, C127A (protein)
chain: B2 chain with K6E, R49I, A53K, S55H, A63T
B8 had an IC50 in assay [1] of 0.456 nM. This lies in the sub-nanomolar range.

B9: C167: IL-18 polypeptide: V11I, C38A, C76A, S105I, C127A (protein)
chain: B2 chain with K6E, R49I, A53K, A63T, S105I
Regarding B9, in assay [1], the half-inhibitory concentration (IC50) stood at 0.809 nM.

B10: C161: IL-18 polypeptide: K8R, V11I, C38A, C76A, Q103E, C127A (protein)
chain: B2 chain with K6E, K8R, R49I, A53K, A63T, Q103E
In assay [1], B10 returned an IC50 of 1.07 nM. The IC50 values of the last two molecules are within 1.5-fold of each other.

B11: C168: IL-18 polypeptide: V11I, C38A, C76A, S105K, C127A (protein)
chain: B2 chain with K6E, R49I, A53K, A63T, S105K
B11 registered an IC50 in assay [1] of 0.176 nM.

B12: C159: IL-18 polypeptide: V11I, C38A, K53A, C76A, H109A, C127A (protein)
chain: B2 chain with K6E, R49I, A63T, H109A
With B12, the concentration for half-maximal inhibition (IC50) in assay [1] came out at 1.81 nM.

B13: C179: IL-18 polypeptide: E6K, K8E, V11I, C38A, K53A, T63A, C76A, Q103R, C127A (protein)
chain: B2 chain with K8E, R49I, Q103R
Consider B13, for which the dissociation constant (Kd) with human IL-18BP is > 2800 nM.

B14: C182: IL-18 polypeptide: E6K, V11I, C38A, K53A, T63A, C76A, C127A, V153Y (protein)
chain: B2 chain with R49I, V153Y
Take B14: the dissociation constant (Kd) with human IL-18BP was > 2800 nM.

B15: C162: IL-18 polypeptide: K8E, V11I, C38A, C76A, Q103R, C127A (protein)
chain: B2 chain with K6E, K8E, R49I, A53K, A63T, Q103R
For B15, in assay [1], the IC50 turned out to be 7.29 nM.

B16: C165: IL-18 polypeptide: V11I, C38A, S55R, C76A, C127A (protein)
chain: B2 chain with K6E, R49I, A53K, S55R, A63T
With B16, the IC50 in assay [1] was 0.885 nM.

B17: C163: IL-18 polypeptide: V11I, C38A, C76A, Q103K, C127A (protein)
chain: B2 chain with K6E, R49I, A53K, A63T, Q103K
As to B17, the half-maximal inhibitory concentration (IC50) in assay [1] was 0.823 nM.

B18: SEQ ID NO: 71: IL-18 polypeptide: N-terminal G, E6K, V11I, C38A, K53A, T63A, C76A, C127A (protein)
chain: GYFGKLKSKLSIIRNLNDQVLFIDQGNRPLFEDMTDSDARDNAPRTIFIISMYADSQPRGMAVAISVKCEKISTLSAENKIISFKEMNPPDNIKDTKSDIIFFQRSVPGHDNKMQFESSSYEGYFLAAEKERDLFKLILKKEDELGDRSIMFTVQNED
modifications: N-terminal G
notes: IL-18 polypeptide: N-terminal G, E6K, V11I, C38A, K53A, T63A, C76A, C127A
Consider B18, for which the equilibrium dissociation constant (Kd) in the assay with human IL-18BP is > 2800 nM.

B19: SEQ ID NO: 70: IL-18 polypeptide: N-terminal G, E6K, V11I, C38A, M51G, K53A, T63A, C76A, C127A (protein)
chain: B18 chain with M52G
modifications: N-terminal G
notes: IL-18 polypeptide: N-terminal G, E6K, V11I, C38A, M51G, K53A, T63A, C76A, C127A
As to B19, in the assay with human IL-18BP, the Kd is > 2800 nM.
